This note sets out measurements from patent US20120316071A1 (published 2012).

In experiment [1] the target is T1, Recombinant Human DLL4 (delta-like protein 4) (human, UniProt Q9NR61 27-524).
T1 construct: Bought recombinant protein (R&D Systems Cat#1506-D4/CF); also called rHuman DLL4
Description: ELISA on plate-coated DLL4, 100 nM Fab. On the technique in general: ELISA stands for enzyme-linked immunosorbent assay.

Experiment [2] deals with T1, Recombinant Human DLL4 (delta-like …). The experiment in a line: ECL 96-well plate assay on immobilised DLL4, 10 nM Fab.
Experiment [3] deals with T2, Recombinant Human DLL4 (R&D Systems Cat#1506-D4/CF) (human, UniProt Q9NR61 27-524).
T2 construct: Bought recombinant protein; also called delta-like protein 4; rHuman DLL4
Description: ECL multispot (MSD) binding assay, DLL4 signal over blank spot; Fab concentration not given.

For experiment [4], the target named is T2, Recombinant Human DLL4 (R&D Systems …). Description: ECL multispot (MSD) binding assay, DLL4 spotted on plate, purified Fab in solution; Fab concentration not given.

B1: Fab VH1-46_IGHD6-6*01_IGHJ1*01 S102A/S103P/S104F/H111F N52T & L6_IGKJ1*01 (Fab, V domains shown)
VH: QVQLVQSGAEVKKPGASVKVSCKASGYTFTSYYMHWVRQAPGQGLEWMGIITPSGGSTSYAQKFQGRVTMTRDTSTSTVYMELSSLRSEDTAVYYCAREEYAPFSAEYFQFWGQGTLVTVSS
VL: not shown
notes: Fab from E. coli; CH1 (with His and Flag tags) and kappa CL come from the expression plasmids; also called APFF N52T
On to B1, for which the “ELISA signal” value in experiment [1] was 0.61. In experiment [2], the “ECL signal” value is 66800.

B2: Fab VH1-46_IGHD6-6*01_IGHJ1*01 S102A/S103P/S104F/H111F G56R & L6_IGKJ1*01 (Fab, V domains shown)
VH: QVQLVQSGAEVKKPGASVKVSCKASGYTFTSYYMHWVRQAPGQGLEWMGIINPSGRSTSYAQKFQGRVTMTRDTSTSTVYMELSSLRSEDTAVYYCAREEYAPFSAEYFQFWGQGTLVTVSS
VL: not shown
notes: Fab from E. coli; CH1 (with His and Flag tags) and kappa CL come from the expression plasmids; also called APFF G56R
With B2, in experiment [1], the “ELISA signal” value was 0.2. Further, the “ECL signal” value in experiment [2] came to 64300.

B3: Fab VH1-46_IGHD6-6*01_IGHJ1*01 S102A/S103P/S104F/H111F G56I & L6_IGKJ1*01 (Fab, V domains shown)
VH: QVQLVQSGAEVKKPGASVKVSCKASGYTFTSYYMHWVRQAPGQGLEWMGIINPSGISTSYAQKFQGRVTMTRDTSTSTVYMELSSLRSEDTAVYYCAREEYAPFSAEYFQFWGQGTLVTVSS
VL: not shown
notes: Fab from E. coli; CH1 (with His and Flag tags) and kappa CL come from the expression plasmids; also called APFF G56I
As to B3, in experiment [1], the “ELISA signal” value turned out to be 0.23. For the same molecule, the “ECL signal” value in experiment [2] came to 77000.

B4: Fab VH1-46_IGHD6-6*01_IGHJ1*01 S102A/S103P/S104F/H111F (APFF) & L6_IGKJ1*01 S28H (Fab, V domains shown)
VH: QVQLVQSGAEVKKPGASVKVSCKASGYTFTSYYMHWVRQAPGQGLEWMGIINPSGGSTSYAQKFQGRVTMTRDTSTSTVYMELSSLRSEDTAVYYCAREEYAPFSAEYFQFWGQGTLVTVSS
VL: EIVLTQSPATLSLSPGERATLSCRASQHVSSYLAWYQQKPGQAPRLLIYDASNRATGIPARFSGSGSGTDFTLTISSLEPEDFAVYYCQQRSNWPPWTFGQGTKVEIKR
notes: Fab expressed in E. coli: VH joined to CH1 (Plasmid A, His6 and Flag tags), VL joined to kappa CL (Plasmid C); also called APFF S28H
B4: in experiment [3], the Signal/Blank is 609. The “ECL signal” value in experiment [4] was determined as 209000.

B5: Fab VH1-46_IGHD6-6*01_IGHJ1*01 S102A/S103P/S104F/H111F (APFF) & L6_IGKJ1*01 S28A (Fab, V domains shown)
VH: QVQLVQSGAEVKKPGASVKVSCKASGYTFTSYYMHWVRQAPGQGLEWMGIINPSGGSTSYAQKFQGRVTMTRDTSTSTVYMELSSLRSEDTAVYYCAREEYAPFSAEYFQFWGQGTLVTVSS
VL: EIVLTQSPATLSLSPGERATLSCRASQAVSSYLAWYQQKPGQAPRLLIYDASNRATGIPARFSGSGSGTDFTLTISSLEPEDFAVYYCQQRSNWPPWTFGQGTKVEIKR
notes: Fab expressed in E. coli: VH joined to CH1 (Plasmid A, His6 and Flag tags), VL joined to kappa CL (Plasmid C); also called APFF S28A
As to B5, the Signal/Blank in experiment [3] was determined as 472. Further, the “ECL signal” value in experiment [4] came to 157000.

B6: Fab VH1-46_IGHD6-6*01_IGHJ1*01 S102A/S103P/S104F/H111F I51T/N52V & L6_IGKJ1*01 (Fab, V domains shown)
VH: QVQLVQSGAEVKKPGASVKVSCKASGYTFTSYYMHWVRQAPGQGLEWMGITVPSGGSTSYAQKFQGRVTMTRDTSTSTVYMELSSLRSEDTAVYYCAREEYAPFSAEYFQFWGQGTLVTVSS
VL: not shown
notes: Fab from E. coli; CH1 (with His and Flag tags) and kappa CL come from the expression plasmids; also called APFF I51T/N52V
Consider B6, for which, in experiment [1], the “ELISA signal” value was 1.23. Moreover, in experiment [2], the “ECL signal” value came out at 71700.

B7: Fab VH1-46_IGHD6-6*01_IGHJ1*01 S102A/S103P/S104F/H111F G56S & L6_IGKJ1*01 (Fab, V domains shown)
VH: QVQLVQSGAEVKKPGASVKVSCKASGYTFTSYYMHWVRQAPGQGLEWMGIINPSGSSTSYAQKFQGRVTMTRDTSTSTVYMELSSLRSEDTAVYYCAREEYAPFSAEYFQFWGQGTLVTVSS
VL: not shown
notes: Fab from E. coli; CH1 (with His and Flag tags) and kappa CL come from the expression plasmids; also called APFF G56S
As to B7, the “ELISA signal” value in experiment [1] is 0.18. In addition, the “ECL signal” value in experiment [2] amounted to 65700.

B8: Fab VH1-46_IGHD6-6*01_IGHJ1*01 S102A/S103P/S104F/H111F N52L & L6_IGKJ1*01 (Fab, V domains shown)
VH: QVQLVQSGAEVKKPGASVKVSCKASGYTFTSYYMHWVRQAPGQGLEWMGIILPSGGSTSYAQKFQGRVTMTRDTSTSTVYMELSSLRSEDTAVYYCAREEYAPFSAEYFQFWGQGTLVTVSS
VL: not shown
notes: Fab from E. coli; CH1 (with His and Flag tags) and kappa CL come from the expression plasmids; also called APFF N52L
On to B8, for which the “ELISA signal” value in experiment [1] amounted to 1.06. The “ECL signal” value in experiment [2] stood at 75500.

B9: Fab VH1-46_IGHD6-6*01_IGHJ1*01 S102A/S103P/S104F/H111F S54I & L6_IGKJ1*01 (Fab, V domains shown)
VH: QVQLVQSGAEVKKPGASVKVSCKASGYTFTSYYMHWVRQAPGQGLEWMGIINPIGGSTSYAQKFQGRVTMTRDTSTSTVYMELSSLRSEDTAVYYCAREEYAPFSAEYFQFWGQGTLVTVSS
VL: not shown
notes: Fab from E. coli; CH1 (with His and Flag tags) and kappa CL come from the expression plasmids; also called APFF S54I
Take B9: the “ELISA signal” value in experiment [1] worked out at 0.03. Moreover, the “ECL signal” value in experiment [2] is 18400.

B10: Fab VH1-46_IGHD6-6*01_IGHJ1*01 S102A/S103P/S104F/H111F G56V & L6_IGKJ1*01 (Fab, V domains shown)
VH: QVQLVQSGAEVKKPGASVKVSCKASGYTFTSYYMHWVRQAPGQGLEWMGIINPSGVSTSYAQKFQGRVTMTRDTSTSTVYMELSSLRSEDTAVYYCAREEYAPFSAEYFQFWGQGTLVTVSS
VL: not shown
notes: Fab from E. coli; CH1 (with His and Flag tags) and kappa CL come from the expression plasmids; also called APFF G56V
For the molecule B10, in experiment [1], the “ELISA signal” value came to 0.23. In experiment [2], the “ECL signal” value was 68600.

B11: Fab VH1-46_IGHD6-6*01_IGHJ1*01 S102A/S103P/S104F/H111F G56W & L6_IGKJ1*01 (Fab, V domains shown)
VH: QVQLVQSGAEVKKPGASVKVSCKASGYTFTSYYMHWVRQAPGQGLEWMGIINPSGWSTSYAQKFQGRVTMTRDTSTSTVYMELSSLRSEDTAVYYCAREEYAPFSAEYFQFWGQGTLVTVSS
VL: not shown
notes: Fab from E. coli; CH1 (with His and Flag tags) and kappa CL come from the expression plasmids; also called APFF G56W
Consider B11, for which the “ELISA signal” value in experiment [1] is 0.54. Moreover, the “ECL signal” value in experiment [2] came out at 69600.

B12: Fab VH1-46_IGHD6-6*01_IGHJ1*01 S102A/S103P/S104F/H111F N52V & L6_IGKJ1*01 (Fab, V domains shown)
VH: QVQLVQSGAEVKKPGASVKVSCKASGYTFTSYYMHWVRQAPGQGLEWMGIIVPSGGSTSYAQKFQGRVTMTRDTSTSTVYMELSSLRSEDTAVYYCAREEYAPFSAEYFQFWGQGTLVTVSS
VL: not shown
notes: Fab from E. coli; CH1 (with His and Flag tags) and kappa CL come from the expression plasmids; also called APFF N52V
As to B12, the “ELISA signal” value in experiment [1] is 0.24. For the same molecule, the “ECL signal” value in experiment [2] was 64700.

B13: Fab VH1-46_IGHD6-6*01_IGHJ1*01 S102A/S103P/S104F/H111F N52A & L6_IGKJ1*01 (Fab, V domains shown)
VH: QVQLVQSGAEVKKPGASVKVSCKASGYTFTSYYMHWVRQAPGQGLEWMGIIAPSGGSTSYAQKFQGRVTMTRDTSTSTVYMELSSLRSEDTAVYYCAREEYAPFSAEYFQFWGQGTLVTVSS
VL: not shown
notes: Fab from E. coli; CH1 (with His and Flag tags) and kappa CL come from the expression plasmids; also called APFF N52A
Turning to B13, the “ELISA signal” value in experiment [1] is 0.12. In experiment [2], the “ECL signal” value came out at 52500.
